Source: patent US20210101944A1 (WEST CHINA HOSPITAL SICHUAN UNIVERSITY, published 2021)

What was measured:
[1] = biological target: T1, death receptor fusion protein DR4-Fc (UniProt O00220 24-239, limits assumed); experiment: BLI, DR4-Fc on protein A-coated probe; TRAIL01 to DR4-Fc
T1 construct: Captured on a protein A-coated BLI probe; also called TRAIL R1; not shown: Fc part

[2] = biological target: T2, death receptor fusion protein DR5-Fc (UniProt O14763 56-182, limits assumed); experiment: BLI, DR5-Fc on protein A-coated probe; TRAIL01 to DR5-Fc
T2 construct: Captured on a protein A-coated BLI probe; also called TRAIL R2; not shown: Fc part

[3] = biological target: T2, death receptor fusion protein DR5-Fc; experiment: Biolayer interferometry, DR5-Fc captured on a protein A probe, TRAIL01 at 5-250 nM
Experimental: (§1) The binding constant Ka and the dissociation constant Kd were determined, and then the affinity KD was calculated according to the formula (KD=Kd/Ka).

[4] = biological target: T2, death receptor fusion protein DR5-Fc; experiment: Biolayer interferometry, DR5-Fc captured on a protein A probe, IgBD-TRAIL01 at 10-500 nM
Experimental: as §1

Human IgG = biological target: T3, Human IgG (human); experiment: ELISA, coated hIgG, pH 7.4, detection with biotin-labeled anti-TRAIL antibody and HRP-streptavidin
T3 construct: also called hIgG
Experimental: 1) ELISA Human IgG (hIgG) or mouse IgG (mIgG) was coated in a well plate for ELISA. […] After incubating at 37° C. for 1 h, excess protein was removed.

[5] = biological target: T1, death receptor fusion protein DR4-Fc; experiment: BLI, DR4-Fc on protein A-coated probe; IgBD-TRAIL01 to DR4-Fc
Experimental: as §1

[6] = biological target: T2, death receptor fusion protein DR5-Fc; experiment: BLI, DR5-Fc on protein A-coated probe; IgBD-TRAIL01 to DR5-Fc
Experimental: as §1

[7] = biological target: T1, death receptor fusion protein DR4-Fc; experiment: BLI, DR4-Fc on protein A-coated probe (method of Example 3)
Experimental: as §1

[8] = biological target: T2, death receptor fusion protein DR5-Fc; experiment: BLI, DR5-Fc on protein A-coated probe (method of Example 3)
Experimental: as §1

T1 sequence (O00220 24-239 limits assumed): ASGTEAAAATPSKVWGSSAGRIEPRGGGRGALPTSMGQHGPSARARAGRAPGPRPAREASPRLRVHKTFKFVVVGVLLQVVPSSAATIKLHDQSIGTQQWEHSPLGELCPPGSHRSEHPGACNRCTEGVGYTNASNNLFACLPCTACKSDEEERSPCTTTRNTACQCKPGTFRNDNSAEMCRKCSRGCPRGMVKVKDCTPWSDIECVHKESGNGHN
T2 sequence (O14763 56-182 limits assumed): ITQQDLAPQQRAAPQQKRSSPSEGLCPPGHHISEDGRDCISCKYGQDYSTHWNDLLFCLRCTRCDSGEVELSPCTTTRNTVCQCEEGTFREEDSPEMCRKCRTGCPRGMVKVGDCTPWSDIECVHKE

B1: TRAIL01 (ligand)
chain: VRERGPQRVAAHITGTRGRSNTLSSPNSKNEKALGRKINSWESSRSGHSFLSNLHLRNGELVIQEKGFYYIYSQTYFRFQEEIKENTKNDKQMVQYIYKYTSYPDPILLMKSARNSCWSKDAEYGLYSIYQGGLFELKKDDRIFVSVTNEHLIDMDHEASFFGAFLVG
notes: Control protein without IgBD; also called TRAIL1
Kd [1]: 4 nM
Kd [2]: 1.5 nM
Kd [3]: 1.43 nM

B2: fusion protein IgBD-TRAIL01 (other)
chain: TTYKLVINGKTLKGETTTKAVDAETAAAAFAQYARRNGVDGVWTYDDATKTFTVTEGGGGSGGGGSGGGGSVRERGPQRVAAHITGTRGRSNTLSSPNSKNEKALGRKINSWESSRSGHSFLSNLHLRNGELVIQEKGFYYIYSQTYFRFQEEIKENTKNDKQMVQYIYKYTSYPDPILLMKSARNSCWSKDAEYGLYSIYQGGLFELKKDDRIFVSVTNEHLIDMDHEASFFGAFLVG
notes: also called IgBD-TRAIL1
Kd [4]: 1.5 nM
EC50 (read off the curve) (Human IgG): ~0.4 nM
Kd [5]: 4.33 nM
Kd [6]: 1.43 nM

B3: fusion protein IgBD-TRAIL02 (other)
chain: TTYKLVINGKTLKGETTTKAVDAETAEKAFKQYANDNGVDGVWTYDDATKTFTVTEGGGGSGGGGSGGGGSVRERGPQRVAAHITGTRGRSNTLSSPNSKNEKALGRKINSWESSRSGHSFLSNLHLRNGELVIQEKGFYYIYSQTYFRFQEEIKENTKNDKQMVQYIYKYTSYPDPILLMKSARNSCWSKDAEYGLYSIYQGGLFELKKDDRIFVSVTNEHLIDMDHEASFFGAFLVG
notes: No tag is stated
Kd [7]: 3.96 nM
Kd [8]: 1.79 nM
